Experimental data published in article PMC9482650, “Quantitative fragmentomics allow affinity mapping of interactomes” (Nature Communications, 2022).
Residue numbers refer to the chain shown, from its start.

T1: SIPA1L2, Q9P2F8
T1 sequence (Q9P2F8 945-1036, limits assumed, looked up): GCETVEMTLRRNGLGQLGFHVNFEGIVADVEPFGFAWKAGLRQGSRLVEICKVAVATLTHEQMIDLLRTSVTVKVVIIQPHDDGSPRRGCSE

T2: PDZRN3_1, Q9UPQ7
T2 sequence (Q9UPQ7 244-349, limits assumed, looked up): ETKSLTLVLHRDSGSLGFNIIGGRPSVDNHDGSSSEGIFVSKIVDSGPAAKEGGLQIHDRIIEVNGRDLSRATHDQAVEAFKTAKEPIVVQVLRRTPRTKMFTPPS

T3: LIN7B, Q9HAP6
T3 sequence (Q9HAP6 88-185, limits assumed, looked up): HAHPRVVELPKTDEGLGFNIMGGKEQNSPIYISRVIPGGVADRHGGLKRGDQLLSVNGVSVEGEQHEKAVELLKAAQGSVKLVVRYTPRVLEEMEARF

T4: DLG3_3, Q92796
T4 sequence (Q92796 374-475, limits assumed, looked up): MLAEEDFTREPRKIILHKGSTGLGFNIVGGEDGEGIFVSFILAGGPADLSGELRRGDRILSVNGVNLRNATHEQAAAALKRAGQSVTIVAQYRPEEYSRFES

T5: DFNB31_1, Q9P202
T5 sequence (Q9P202 135-233, limits assumed, looked up): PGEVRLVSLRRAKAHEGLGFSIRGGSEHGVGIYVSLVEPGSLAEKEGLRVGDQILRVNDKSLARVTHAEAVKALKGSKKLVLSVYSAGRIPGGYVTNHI

T6: ARHGEF11, O15085
T6 sequence (O15085 42-136, limits assumed, looked up): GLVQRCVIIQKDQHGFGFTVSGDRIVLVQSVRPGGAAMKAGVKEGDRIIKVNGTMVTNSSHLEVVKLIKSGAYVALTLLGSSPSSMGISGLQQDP

T7: LIN7C, Q9NUP9
T7 sequence (Q9NUP9 88-185, limits assumed, looked up): T3 sequence (Q9HAP6 88-185, limits assumed, looked up) with A2S, D13E, V35I, V40I, Q65H, S79K, R89K, A96S

T8: HTRA3, P83110
T8 sequence (P83110 354-453, limits assumed, looked up): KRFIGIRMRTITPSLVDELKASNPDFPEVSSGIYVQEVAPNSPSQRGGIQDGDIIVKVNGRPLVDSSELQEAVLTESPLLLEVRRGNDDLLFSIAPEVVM

T9: DFNB31_3, Q9P202
T9 sequence (Q9P202 811-907, limits assumed, looked up): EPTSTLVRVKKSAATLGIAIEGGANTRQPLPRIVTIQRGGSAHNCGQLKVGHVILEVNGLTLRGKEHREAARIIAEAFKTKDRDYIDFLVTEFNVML

T10: MPP7, Q5T2T1
T10 sequence (Q5T2T1 134-230, limits assumed, looked up): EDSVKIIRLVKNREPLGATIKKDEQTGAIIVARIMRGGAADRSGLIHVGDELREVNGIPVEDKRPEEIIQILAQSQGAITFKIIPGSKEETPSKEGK

T11: GRIP1_3, Q9Y3R0
T11 sequence (Q9Y3R0 247-346, limits assumed, looked up): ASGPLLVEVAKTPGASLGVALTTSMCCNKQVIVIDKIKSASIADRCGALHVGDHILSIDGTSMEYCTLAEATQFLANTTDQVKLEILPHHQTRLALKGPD

T12: GRIP1_4, Q9Y3R0
T12 sequence (Q9Y3R0 467-571, limits assumed, looked up): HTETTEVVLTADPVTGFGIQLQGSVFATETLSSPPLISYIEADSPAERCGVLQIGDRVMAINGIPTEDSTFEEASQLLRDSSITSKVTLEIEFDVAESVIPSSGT

T13: SNTA1, Q13424
T13 sequence (Q13424 82-180, limits assumed, looked up): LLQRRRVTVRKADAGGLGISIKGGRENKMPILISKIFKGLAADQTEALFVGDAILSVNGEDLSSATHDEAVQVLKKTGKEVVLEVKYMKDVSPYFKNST


target: T1, SIPA1L2, Q9P2F8; assay: holdup assay; set-up: key: below the threshold = too weak to quantify, mostly under pKd 3.1 to 4; details: plain residues with an end cap or a label only (N-terminal biotin on a linker: ado-ado)

pKd	Binder
3.49	TKEIPNCTSV [SORCS3, Q9UPU3]
below the threshold	QLKSGRDSTV [TMEM178A, Q8NBL3]

target: T2, PDZRN3_1, Q9UPQ7; assay: holdup assay; set-up: key: below the threshold = too weak to quantify, mostly under pKd 3.1 to 4; details: plain residues with an end cap or a label only (N-terminal biotin on a linker: ado-ado)

pKd	Binder
3.92	TKEIPNCTSV [SORCS3, Q9UPU3]
3.74	QLKSGRDSTV [TMEM178A, Q8NBL3]

target: DLG4_2, P78352; assay: holdup assay; set-up: key: below the threshold = too weak to quantify, mostly under pKd 3.1 to 4; details: plain residues with an end cap or a label only (N-terminal biotin on a linker: ado-ado)
Sequence (P78352 155-259): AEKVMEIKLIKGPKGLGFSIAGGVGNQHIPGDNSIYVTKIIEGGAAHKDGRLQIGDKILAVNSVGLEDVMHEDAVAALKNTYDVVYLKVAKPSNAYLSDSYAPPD

pKd	Binder
4.28	TKEIPNCTSV [SORCS3, Q9UPU3]
4.61	QLKSGRDSTV [TMEM178A, Q8NBL3]

target: NHERF4_2, Q86UT5; assay: holdup assay; set-up: key: below the threshold = too weak to quantify, mostly under pKd 3.1 to 4; details: plain residues with an end cap or a label only (N-terminal biotin on a linker: ado-ado)
Sequence (Q86UT5 220-308): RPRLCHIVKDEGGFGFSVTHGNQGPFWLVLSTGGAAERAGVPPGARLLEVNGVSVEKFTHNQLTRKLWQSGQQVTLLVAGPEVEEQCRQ

pKd	Binder
3.49	TKEIPNCTSV [SORCS3, Q9UPU3]
3.62	QLKSGRDSTV [TMEM178A, Q8NBL3]

target: T3, LIN7B, Q9HAP6; assay: holdup assay; set-up: key: below the threshold = too weak to quantify, mostly under pKd 3.1 to 4; details: plain residues with an end cap or a label only (N-terminal biotin on a linker: ado-ado)

pKd	Binder
below the threshold	TKEIPNCTSV [SORCS3, Q9UPU3]
below the threshold	QLKSGRDSTV [TMEM178A, Q8NBL3]

target: T4, DLG3_3, Q92796; assay: holdup assay; set-up: key: below the threshold = too weak to quantify, mostly under pKd 3.1 to 4; details: plain residues with an end cap or a label only (N-terminal biotin on a linker: ado-ado)

pKd	Binder
4	TKEIPNCTSV [SORCS3, Q9UPU3]
3.66	QLKSGRDSTV [TMEM178A, Q8NBL3]

target: T5, DFNB31_1, Q9P202; assay: holdup assay; set-up: key: below the threshold = too weak to quantify, mostly under pKd 3.1 to 4; details: plain residues with an end cap or a label only (N-terminal biotin on a linker: ado-ado)

pKd	Binder
4.06	TKEIPNCTSV [SORCS3, Q9UPU3]
3.6	QLKSGRDSTV [TMEM178A, Q8NBL3]

target: FRMPD4, Q14CM0; assay: holdup assay; set-up: key: below the threshold = too weak to quantify, mostly under pKd 3.1 to 4; details: plain residues with an end cap or a label only (N-terminal biotin on a linker: ado-ado)
Sequence (Q14CM0 67-160): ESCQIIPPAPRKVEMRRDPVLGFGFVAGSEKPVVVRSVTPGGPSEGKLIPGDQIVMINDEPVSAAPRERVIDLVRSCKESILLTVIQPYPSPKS

pKd	Binder
3.65	TKEIPNCTSV [SORCS3, Q9UPU3]
3.61	QLKSGRDSTV [TMEM178A, Q8NBL3]

target: GORASP1, Q9BQQ3; assay: holdup assay; set-up: key: below the threshold = too weak to quantify, mostly under pKd 3.1 to 4; details: plain residues with an end cap or a label only (N-terminal biotin on a linker: ado-ado)
Sequence (Q9BQQ3 1-208): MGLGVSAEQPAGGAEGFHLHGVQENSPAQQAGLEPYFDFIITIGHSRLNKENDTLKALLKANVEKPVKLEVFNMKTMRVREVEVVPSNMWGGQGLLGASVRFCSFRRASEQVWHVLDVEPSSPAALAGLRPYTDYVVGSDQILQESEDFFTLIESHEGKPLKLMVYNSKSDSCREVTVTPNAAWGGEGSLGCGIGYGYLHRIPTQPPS

pKd	Binder
below the threshold	TKEIPNCTSV [SORCS3, Q9UPU3]
below the threshold	QLKSGRDSTV [TMEM178A, Q8NBL3]

target: GRIP2_5, Q9C0E4; assay: holdup assay; set-up: key: below the threshold = too weak to quantify, mostly under pKd 3.1 to 4; details: plain residues with an end cap or a label only (N-terminal biotin on a linker: ado-ado)
Sequence (Q9C0E4 544-642): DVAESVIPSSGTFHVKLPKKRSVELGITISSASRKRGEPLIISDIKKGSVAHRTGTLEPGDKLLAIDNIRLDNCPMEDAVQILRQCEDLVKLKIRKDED

pKd	Binder
below the threshold	TKEIPNCTSV [SORCS3, Q9UPU3]
below the threshold	QLKSGRDSTV [TMEM178A, Q8NBL3]

target: GORASP2, Q9H8Y8; assay: holdup assay; set-up: key: below the threshold = too weak to quantify, mostly under pKd 3.1 to 4; details: plain residues with an end cap or a label only (N-terminal biotin on a linker: ado-ado)

pKd	Binder
3.75	TKEIPNCTSV [SORCS3, Q9UPU3]
below the threshold	QLKSGRDSTV [TMEM178A, Q8NBL3]

target: T6, ARHGEF11, O15085; assay: holdup assay; set-up: key: below the threshold = too weak to quantify, mostly under pKd 3.1 to 4; details: plain residues with an end cap or a label only (N-terminal biotin on a linker: ado-ado)

pKd	Binder
4.82	TKEIPNCTSV [SORCS3, Q9UPU3]
4.11	QLKSGRDSTV [TMEM178A, Q8NBL3]

target: GIPC2, Q8TF65; assay: holdup assay; set-up: key: below the threshold = too weak to quantify, mostly under pKd 3.1 to 4; details: plain residues with an end cap or a label only (N-terminal biotin on a linker: ado-ado)
Sequence (Q8TF65 112-203): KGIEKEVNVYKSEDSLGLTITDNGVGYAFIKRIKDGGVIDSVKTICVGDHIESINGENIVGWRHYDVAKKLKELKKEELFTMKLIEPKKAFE

pKd	Binder
3.83	TKEIPNCTSV [SORCS3, Q9UPU3]
3.87	QLKSGRDSTV [TMEM178A, Q8NBL3]

target: MAGI2_4, Q86UL8; assay: holdup assay; set-up: key: below the threshold = too weak to quantify, mostly under pKd 3.1 to 4; details: plain residues with an end cap or a label only (N-terminal biotin on a linker: ado-ado)
Sequence (Q86UL8 772-865): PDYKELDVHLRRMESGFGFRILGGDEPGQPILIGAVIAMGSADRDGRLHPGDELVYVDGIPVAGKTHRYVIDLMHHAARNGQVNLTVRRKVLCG

pKd	Binder
4.16	TKEIPNCTSV [SORCS3, Q9UPU3]
3.92	QLKSGRDSTV [TMEM178A, Q8NBL3]

target: T7, LIN7C, Q9NUP9; assay: holdup assay; set-up: key: below the threshold = too weak to quantify, mostly under pKd 3.1 to 4; details: plain residues with an end cap or a label only (N-terminal biotin on a linker: ado-ado)

pKd	Binder
below the threshold	TKEIPNCTSV [SORCS3, Q9UPU3]
4.13	QLKSGRDSTV [TMEM178A, Q8NBL3]

target: CASK, O14936; assay: holdup assay; set-up: key: below the threshold = too weak to quantify, mostly under pKd 3.1 to 4; details: plain residues with an end cap or a label only (N-terminal biotin on a linker: ado-ado)
Sequence (O14936 487-570): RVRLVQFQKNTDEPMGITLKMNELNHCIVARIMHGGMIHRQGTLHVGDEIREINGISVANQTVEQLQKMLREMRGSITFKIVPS

pKd	Binder
below the threshold	TKEIPNCTSV [SORCS3, Q9UPU3]
3.54	QLKSGRDSTV [TMEM178A, Q8NBL3]

target: T8, HTRA3, P83110; assay: holdup assay; set-up: key: below the threshold = too weak to quantify, mostly under pKd 3.1 to 4; details: plain residues with an end cap or a label only (N-terminal biotin on a linker: ado-ado)

pKd	Binder
3.52	TKEIPNCTSV [SORCS3, Q9UPU3]
below the threshold	QLKSGRDSTV [TMEM178A, Q8NBL3]

target: T9, DFNB31_3, Q9P202; assay: holdup assay; set-up: key: below the threshold = too weak to quantify, mostly under pKd 3.1 to 4; details: plain residues with an end cap or a label only (N-terminal biotin on a linker: ado-ado)

pKd	Binder
4.05	TKEIPNCTSV [SORCS3, Q9UPU3]
below the threshold	QLKSGRDSTV [TMEM178A, Q8NBL3]

target: T10, MPP7, Q5T2T1; assay: holdup assay; set-up: key: below the threshold = too weak to quantify, mostly under pKd 3.1 to 4; details: plain residues with an end cap or a label only (N-terminal biotin on a linker: ado-ado)

pKd	Binder
below the threshold	TKEIPNCTSV [SORCS3, Q9UPU3]
below the threshold	QLKSGRDSTV [TMEM178A, Q8NBL3]

target: T11, GRIP1_3, Q9Y3R0; assay: holdup assay; set-up: key: below the threshold = too weak to quantify, mostly under pKd 3.1 to 4; details: plain residues with an end cap or a label only (N-terminal biotin on a linker: ado-ado)

pKd	Binder
below the threshold	TKEIPNCTSV [SORCS3, Q9UPU3]
below the threshold	QLKSGRDSTV [TMEM178A, Q8NBL3]

target: Inadl_2, Q8NI35; assay: holdup assay; set-up: key: below the threshold = too weak to quantify, mostly under pKd 3.1 to 4; details: plain residues with an end cap or a label only (N-terminal biotin on a linker: ado-ado)
Sequence (Q8NI35 238-335): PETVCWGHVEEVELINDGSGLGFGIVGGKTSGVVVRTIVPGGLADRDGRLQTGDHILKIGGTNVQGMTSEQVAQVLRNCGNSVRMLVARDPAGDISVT

pKd	Binder
below the threshold	TKEIPNCTSV [SORCS3, Q9UPU3]
below the threshold	QLKSGRDSTV [TMEM178A, Q8NBL3]

target: T12, GRIP1_4, Q9Y3R0; assay: holdup assay; set-up: key: below the threshold = too weak to quantify, mostly under pKd 3.1 to 4; details: plain residues with an end cap or a label only (N-terminal biotin on a linker: ado-ado)

pKd	Binder
below the threshold	TKEIPNCTSV [SORCS3, Q9UPU3]
3.56	QLKSGRDSTV [TMEM178A, Q8NBL3]

target: GRID2IP_1, A4D2P6; assay: holdup assay; set-up: key: below the threshold = too weak to quantify, mostly under pKd 3.1 to 4; details: plain residues with an end cap or a label only (N-terminal biotin on a linker: ado-ado)
Sequence (A4D2P6 1-87): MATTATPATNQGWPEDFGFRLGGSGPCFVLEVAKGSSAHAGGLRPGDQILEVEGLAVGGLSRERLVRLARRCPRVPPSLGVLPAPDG

pKd	Binder
below the threshold	TKEIPNCTSV [SORCS3, Q9UPU3]
below the threshold	QLKSGRDSTV [TMEM178A, Q8NBL3]

target: T13, SNTA1, Q13424; assay: holdup assay; set-up: key: below the threshold = too weak to quantify, mostly under pKd 3.1 to 4; details: plain residues with an end cap or a label only (N-terminal biotin on a linker: ado-ado)

pKd	Binder
4.16	TKEIPNCTSV [SORCS3, Q9UPU3]
3.88	QLKSGRDSTV [TMEM178A, Q8NBL3]

target: GOPC, Q9HD26; assay: holdup assay; set-up: key: below the threshold = too weak to quantify, mostly under pKd 3.1 to 4; details: plain residues with an end cap or a label only (N-terminal biotin on a linker: ado-ado)

pKd	Binder
3.95	TKEIPNCTSV [SORCS3, Q9UPU3]
3.57	QLKSGRDSTV [TMEM178A, Q8NBL3]
